From PMC4894760 (Journal of controlled release : official journal of the …, 2016)

Molecular target: recombinant human SDF1 (free SDF1) (human, UniProt P48061-2 22-89)
Experiment: SPR

Sequence of recombinant human SDF1 (free SDF1) (P48061 22-89): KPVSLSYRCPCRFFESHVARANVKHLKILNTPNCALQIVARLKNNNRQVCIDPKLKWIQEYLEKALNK

B1: recombinant human CXCR4 (receptor, UniProt P61073 1-352, looked up)
chain: MEGISIYTSDNYTEEMGSGDYDSMKEPCFREENANFNKIFLPTIYSIIFLTGIVGNGLVILVMGYQKKLRSMTDKYRLHLSVADLLFVITLPFWAVDAVANWYFGNFLCKAVHVIYTVNLYSSVLILAFISLDRYLAIVHATNSQRPRKLLAEKVVYVGVWIPALLLTIPDFIFANVSEADDRYICDRFYPNDLWVVVFQFQHIMVGLILPGIVILSCYCIIISKLSHSKGHQKRKALKTTVILILAFFACWLPYYIGISIDSFILLEIIKQGCEFENTVHKWISITEALAFFHCCLNPILYAFLGAKFKTSAQHALTSVSRGSSLKILSKGKRGGHSSVSTESESSSFHSS
B1 was tested. Which Kd did it give?
The Kd was 0.3 nM.
